{"source": "paper PMC8318917", "about": "(The Journal of Biological Chemistry, 2021)", "target": "T1, human TRADD death domain (199–312) (human, UniProt Q15628 199-312)", "T1 sequence": "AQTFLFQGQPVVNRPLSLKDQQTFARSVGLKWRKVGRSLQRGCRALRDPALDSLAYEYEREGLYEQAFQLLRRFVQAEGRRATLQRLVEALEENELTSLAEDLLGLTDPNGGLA", "assay": "NMR solution structure"}
{"binder": "human p75 neurotrophin receptor death domain (330–427) (domain or fragment) KGDGGLYSSLPPAKREEVEKLLNGSAGDTWRHLAGELGYQPEHIDSFTHEACPVRALLASWATQDSATLDALLAALRRIQRADLVESLCSESTATSPV", "values": [{"measurement": "binding result", "value": "binds"}]}
